The results in this text go back to patent US20120238493A1 (INDIANA UNIVERSITY RESEARCH AND TECHNOLOGY, published 2012).

What all share (experiment): cell-based or functional assay
In one experiment the target is T1, GIP receptor (UniProt P48546 22-466, limits assumed).
T1 sequence (looked up): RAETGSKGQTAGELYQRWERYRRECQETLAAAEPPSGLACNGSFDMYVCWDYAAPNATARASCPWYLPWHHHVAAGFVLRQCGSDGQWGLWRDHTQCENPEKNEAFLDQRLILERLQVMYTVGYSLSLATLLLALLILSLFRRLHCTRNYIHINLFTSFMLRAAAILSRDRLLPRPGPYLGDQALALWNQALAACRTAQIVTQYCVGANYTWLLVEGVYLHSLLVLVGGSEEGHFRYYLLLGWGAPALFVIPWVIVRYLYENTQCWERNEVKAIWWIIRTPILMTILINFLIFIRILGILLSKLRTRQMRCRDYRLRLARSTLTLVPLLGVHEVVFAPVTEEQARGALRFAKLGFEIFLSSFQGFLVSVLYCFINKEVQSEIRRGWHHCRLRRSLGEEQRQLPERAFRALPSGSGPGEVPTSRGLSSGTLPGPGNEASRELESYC

A further experiment deals with glucagon receptor (UniProt P47871 26-477, limits assumed).
glucagon receptor, sequence (P47871 26-477 limits assumed): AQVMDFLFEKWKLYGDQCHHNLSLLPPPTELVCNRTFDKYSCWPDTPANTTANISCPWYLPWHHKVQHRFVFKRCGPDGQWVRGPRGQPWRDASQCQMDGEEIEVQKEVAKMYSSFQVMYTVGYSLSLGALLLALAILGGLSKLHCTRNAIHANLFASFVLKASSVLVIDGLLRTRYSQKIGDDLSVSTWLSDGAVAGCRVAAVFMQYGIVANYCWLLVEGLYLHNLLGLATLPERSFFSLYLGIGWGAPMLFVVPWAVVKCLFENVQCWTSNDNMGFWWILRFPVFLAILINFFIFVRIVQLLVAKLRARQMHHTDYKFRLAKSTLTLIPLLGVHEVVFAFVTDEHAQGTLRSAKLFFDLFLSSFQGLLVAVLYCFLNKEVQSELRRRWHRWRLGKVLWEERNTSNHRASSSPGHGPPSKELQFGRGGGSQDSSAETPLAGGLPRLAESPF
The target in the next experiment is GLP-1 receptor (UniProt P43220 24-463, limits assumed).

Bridges are numbered along the chain shown (N, C = ends). Where no end group is shown, it is not given here.

B1: mt-397 (SEQ ID NO: 17) (peptide)
peptide: YSQGTFTSDYSKYLDEIHQKEFVNWLLAQ-NH2
modifications: staple (positions not given here); not fully specified; also: olefinic cross-link, positions not given here
Take B1: the “EC50 (cAMP reporter)” value with GIP receptor came out at 2.9 pM; in the experiment with glucagon receptor, 5350 pM; in the experiment with GLP-1 receptor, 8.5 pM. The “relative activity (to native hormone)” value in the experiment with GIP receptor is 470%; with glucagon receptor it was 0.56%; with GLP-1 receptor, 288%.

B2: mt-395 (SEQ ID NO: 15) (peptide)
peptide: HSQGTFTSDYSKYLDEIHQKDFVNWLLAGGPSSGAPPPS-NH2
modifications: lactam 16-20; N-terminus assumed
SMILES: CC[C@H](C)[C@@H]1NC(=O)[C@@H](NC(=O)[C@H](CC(=O)O)NC(=O)[C@H](CC(C)C)NC(=O)[C@H](Cc2ccc(O)cc2)NC(=O)[C@H](CCCCN)NC(=O)[C@H](CO)NC(=O)[C@H](Cc2ccc(O)cc2)NC(=O)[C@H](CC(=O)O)NC(=O)[C@H](CO)NC(=O)[C@@H](NC(=O)[C@H](Cc2ccccc2)NC(=O)[C@@H](NC(=O)CNC(=O)[C@H](CCC(N)=O)NC(=O)[C@H](CO)NC(=O)[C@@H](N)Cc2c[nH]cn2)[C@@H](C)O)[C@@H](C)O)CCC(=O)NCCCC[C@@H](C(=O)N[C@@H](CC(=O)O)C(=O)N[C@@H](Cc2ccccc2)C(=O)N[C@H](C(=O)N[C@@H](CC(N)=O)C(=O)N[C@@H](Cc2c[nH]c3ccccc23)C(=O)N[C@@H](CC(C)C)C(=O)N[C@@H](CC(C)C)C(=O)N[C@@H](C)C(=O)NCC(=O)NCC(=O)N2CCC[C@H]2C(=O)N[C@@H](CO)C(=O)N[C@@H](CO)C(=O)NCC(=O)N[C@@H](C)C(=O)N2CCC[C@H]2C(=O)N2CCC[C@H]2C(=O)N2CCC[C@H]2C(=O)N[C@@H](CO)C(N)=O)C(C)C)NC(=O)[C@H](CCC(N)=O)NC(=O)[C@H](Cc2c[nH]cn2)NC1=O
In the case of B2, the entries for the “EC50 (cAMP reporter)” value with GIP receptor, in the experiment with glucagon receptor and in the experiment with GLP-1 receptor were 2.5 pM, 3410 pM and 7.6 pM, respectively. The “relative activity (to native hormone)” value in the experiment with GIP receptor came to 537%; with glucagon receptor it was 0.87%; with GLP-1 receptor it was 322%.

B3: mt-396 (SEQ ID NO: 16) (peptide)
peptide: YSQGTFTSDYSKYLDEIHQKDFVNWLLAGGPSSGAPPPS-NH2
modifications: lactam 16-20; N-terminus assumed
SMILES: CC[C@H](C)[C@@H]1NC(=O)[C@@H](NC(=O)[C@H](CC(=O)O)NC(=O)[C@H](CC(C)C)NC(=O)[C@H](Cc2ccc(O)cc2)NC(=O)[C@H](CCCCN)NC(=O)[C@H](CO)NC(=O)[C@H](Cc2ccc(O)cc2)NC(=O)[C@H](CC(=O)O)NC(=O)[C@H](CO)NC(=O)[C@@H](NC(=O)[C@H](Cc2ccccc2)NC(=O)[C@@H](NC(=O)CNC(=O)[C@H](CCC(N)=O)NC(=O)[C@H](CO)NC(=O)[C@@H](N)Cc2ccc(O)cc2)[C@@H](C)O)[C@@H](C)O)CCC(=O)NCCCC[C@@H](C(=O)N[C@@H](CC(=O)O)C(=O)N[C@@H](Cc2ccccc2)C(=O)N[C@H](C(=O)N[C@@H](CC(N)=O)C(=O)N[C@@H](Cc2c[nH]c3ccccc23)C(=O)N[C@@H](CC(C)C)C(=O)N[C@@H](CC(C)C)C(=O)N[C@@H](C)C(=O)NCC(=O)NCC(=O)N2CCC[C@H]2C(=O)N[C@@H](CO)C(=O)N[C@@H](CO)C(=O)NCC(=O)N[C@@H](C)C(=O)N2CCC[C@H]2C(=O)N2CCC[C@H]2C(=O)N2CCC[C@H]2C(=O)N[C@@H](CO)C(N)=O)C(C)C)NC(=O)[C@H](CCC(N)=O)NC(=O)[C@H](Cc2c[nH]cn2)NC1=O
For the molecule B3, the “EC50 (cAMP reporter)” value stood at 3.4 pM with GIP receptor, 2900 pM with glucagon receptor and 9.3 pM with GLP-1 receptor. Also, the entries for the “relative activity (to native hormone)” value with GIP receptor, with glucagon receptor and with GLP-1 receptor were 403%, 1.03% and 262%, respectively.
